From patent US20260273042A1 (INTERNATIONAL AIDS VACCINE INITIATIVE, published 2026)

B1: PGT145 (antibody, V domains shown)
VH: QVQLVQSGAEVKKPGSSVKVSCKASGNSFSNHDVHWVRQATGQGLEWMGWMSHEGDKTGLAQKFQGRVTITRDSGASTVYMELRGLTADDTAIYYCLTGSKHRLRDYFLYNEYGPNYEEWGDYLATLDVWGHGTAVTVSS
VL: EVVITQSPLFLPVTPGEAASLSCKCSHSLQHSTGANYLAWYLQRPGQTPRLLIHLATHRASGVPDRFSGSGSGTDFTLKISRVESDDVGTYYCMQGLHSPWTFGQGTKVEIKR
B2: PGT151 Fab (Fab, V domains shown)
VH: RVQLVESGGGVVQPGKSVRLSCVVSDFPFSKYPMYWVRQAPGKGLEWVAAISGDAWHVVYSNSVQGRFLVSRDNVKNTLYLEMNSLKIEDTAVYRCARMFQESGPPRLDRWSGRNYYYYSGMDVWGQGTTVTVSS
VL: DIVMTQTPLSLSVTPGQPASISCKSSESLRQSNGKTSLYWYRQKPGQSPQLLVFEVSNRFSGVSDRFVGSGSGTDFTLRISRVEAEDVGFYYCMQSKDFPLTFGGGTKVDLKR

Assays:
BG505 MD53 = experiment: SPR (ligand and analyte not given)
AC10 Olio6 = experiment: SPR (ligand and analyte not given)
MD39-10MUT = experiment: SPR, trimer ligand, Fab analyte (1-to-1 fit relatively poor) [panel A]

Row | Binder | Kd (BG505 MD53) [nM] | Kd (AC10 Olio6) [nM] | Kd (MD39-10MUT) [nM]
1 | B1 | 22 | 53 | –
2 | B2 | – | – | 35
